Assay results taken from patent US7271245B2, “Methods and compositions for inhibition of metastasis” (The Scripps Research Institute, priority 2004, dated 2007).

Tested on: activated integrin αvβ3
Experiment: Flow cytometry, scFv binding to MDA-MB 435 variants and patient metastatic breast cancer cells
Set-up: species or system human
Protocol: FIGS. 1A, 1B, 1C. Patient derived scFvs Bc-12 and Bc-15 recognize tumor cell integrin αvβ3 in a cation and activation dependent manner. Flow cytometric analyses in TBS with or without 1 mM Ca^2+, 1 mM Mg^2+, or 0.2 mM Mn^2+ as indicated. Binding of soluble scFv detected after incubation with anti-Flag M2 murine mAb followed by FITC-anti mouse F(ab′)2. (A) scFv binding to human melanoma cells (M21: αvβ3 plus other αv integrins) (M21-LIIb: αIIbβ3, no αv integrins) or lung adenocarcinoma cells (UCLA-P3: αv integrins, no β3 integrin). (B) scFv binding to M21 melanoma cells. (C) scFv binding to variants of MDA-MB 435 human breast cancer cells that lack (β^3−) or express αvβ3 either in a non-activated (β3WT, ParentCo) or activated form (β3D723R, Bone, Lung, and BMS metastatic cancer cells isolated from breast cancer patient blood).
FIGS. 2A, 2B, 2C, 2D. Translation of scFv DNA sequence analyses. (A) Consensus amino acid sequence (SEQ ID NO: 9) of Bc-12 (SEQ ID NO: 7) and Bc-15 (SEQ ID NO: 8) (specific for activated αvβ3) compared to Bc-20 (specific for αv) (SEQ ID NO: 10). (B) scFv binding to BMS human breast cancer cells by flow cytometry, indicating loss of Bc-12 and Bc-15 binding when CDR-H3 RGD is mutated to RGE (Mut-12 and Mut-15). […] (C) cDNA sequences for scFv Bc-12 (SEQ ID NO: 1) and scFv Bc-15 (SEQ ID NO: 3). The cDNA encoding scFv Bc-12 has an ATCC accession number PTA-6303, date of deposit: Nov. 12, 2004. The cDNA encoding scFv Bc-15 has an ATCC accession number PTA-6304, date of deposit: Nov. 12, 2004. (D) cDNA sequences for scFv Mut-12 (SEQ ID NO: 5) and scFv Mut-15 (SEQ ID NO: 6). scFv Mut-12 is the RGE containing mutant version of scFv Bc-12. scFv Mut-15 is the RGE containing mutant version of scFv Bc-15.
Flow cytometry. scFv binding to human tumor cells was analyzed by flow cytometry, initially with cloned scFv phage and then with purified scFv protein. Per sample, 2×10^5 tumor cells were blocked with goat serum and incubated either with scFv phage (2-5×10^10) (1 h at RT) followed by mouse anti-M13 mAb (Serotec) (30 min on ice) and goat FITC-anti mouse (Pierce) (30 min on ice), or with purified scFv (1.25 to 40 μg/ml, routinely 10 to 15 μg/ml) (45 min on ice), followed by mouse anti-FLAG mAb M2 (Sigma) (30 min on ice) and goat FITC-anti mouse. Binding/washing buffer was TBS with or without divalent cations (1 mM Ca^2+, 1 mM Mg^2+, 0.2 mM Mn^2+). Alternatively, tumor cells were washed in 10 ml of plasma (prepared freshly from human blood anticoagulated with 50 nM D-Phe-D-Pro-D-arginyl chloromethyl ketone, PPACK, Felding-Habermann et al., J. Biol. Chem. 271: 5892-5900, 1996), resuspended in plasma and then incubated sequentially, without washing, with purified scFv (45 min on ice), followed by anti-FLAG M2 (30 min on ice) and FITC-anti mouse (30 min on ice). All samples were counter stained with propidium iodide (PI) and analyzed on a Becton-Dickinson FACScan, with live gate set to exclude PI positive cells.
To test this further, the effects of cation combinations on Bc-12 and Bc-15 binding were examined. […] Smith, Methods Cell Biol. 69: 247-259, 2002; Hughes et al., J. Biol. Chem. 271: 6571-6574, 1996. To confirm that scFv Bc-12 and Bc-15 selectively recognize αvβ3 in its activated form, binding of these antibodies to in vitro generated and in vivo selected variants of the MDA-MB 435 breast cancer cell model was tested. […] In contrast, Bc-12 and Bc-15 were able to bind an MDA-MB 435 variant expressing constitutively activated mutant αvβ3D723R, without exogenous stimulation with Mn^2+. […] Importantly, scFvs Bc-12 and Bc-15 recognized in vivo selected MDA-MB 435 variants from bone and lung metastases, as well as metastatic cells isolated from breast cancer patient blood samples (FIG. 1C). These cells express αvβ3 in a constitutively activated form. Felding-Habermann et al., Proc. Natl. Acad. Sci. U.S.A 98: 1853-1858, 2001; Rolli et al., Proc. Natl. Acad. Sci. U.S.A 100: 9482-9487, 2003.

B1: Bc-12: patient derived human scFv antibody against activated αvβ3 with RGD motif in CDR-H3; cDNA ATCC PTA-6303 (protein)
scFv: MAQVQLVQSGAEVKKPGASVKVSCKASGYTFSNYGITWVRQAPGQGLEWMGWINNGNTHYAQKFQGRVTMTTDTSTSTAYMELRSLRSDDTAVYYCARDPRGDDEPYWGQGTLVTVSSGGGGSGGGGSGGGGSEIVLTQSPLSLPVTLGQPASISCRSSQNLVYSDGNTYLSWFQQRPGQSPRRLIYKVSNRDSGVPDRFSGSGSGTDFTLKISRVEAEDIGVYYCMQGTHWPPRTFGQGTKVEIKRGLGGLVDYKDDDDK
B1 was tested, and the “binding to MDA-MB 435 variant expressing αvβ3D723R with Mn2+” value (Mn^2+ added) was “further enhanced”, the “binding to MDA-MB 435 variant expressing αvβ3D723R” value (constitutively activated mutant, without Mn^2+) was “able to bind” and the “binding to β3-negative MDA-MB 435 cells” value (β3− variant) was “failed to bind”.
